Data set [1] has as its system β-gal background activity. Description: First and second round library screening (L1, L2) for induction by sulfonylurea ligands. In kind it is cell-based. Particulars: initial screen, library L1, data not shown. An excerpt: The original library was designed to thifensulfuron, but once induction activity was established with other SU compounds having potentially better soil and in planta stability properties than the original ligand, the evolution process was re-directed towards these alternative ligands. Of particular interest were herbicides metsulfuron, sulfometuron, ethametsulfuron and chlorsulfuron. For this objective, parental clones L1-9, -22, -29 and -44 were chosen for further shuffling. Clone L1-9 has strong activity on both ethametsulfuron and chlorsulfuron; clone L1-22 has strong sulfometuron activity; clone L1-29 has moderate metsulfuron activity; and clone L1-44 has moderate activity on metsulfuron, ethametsulfuron and chlorsulfuron. (Data not shown.). No clones found in the initial screen were exceptionally reactive to metsulfuron. These four clones were also chosen due to their relatively strong repressor activity, showing low β-gal background activity without inducer. Strong repressor activity is important for establishing a system which is both highly sensitive to the presence of inducer, and tightly off in the absence of inducer.
Based on the sequence information from parental clones L1-9, -22, -29 and -44, two second round libraries were designed, constructed and screened. The first library, L2, consisted of a ‘family’ shuffle whereby the amino acid diversity between the selected parental clones was varied using synthetic assembly of oligonucleotides to find clones improved in responsiveness to any of the four new target ligands.
The L2 oligonucleotides were assembled, cloned and screened as per the protocol described for library L1 except that each ligand was tested at 2 ppm to increase the stringency of the assay, which is a 10-fold reduction from 1st round library screening concentration.

A further data set deals with E. coli KM3. Type of data set: cell-based. The following applies: for Control 84 hr (colony color intensity): M9 assay plates, no inducer (background activity), 84 hr at 30° C., ImageJ colony color intensity. As for the experimental part: Library L6 was assembled, rescued, ligated into pVER7314, transformed into E. coli KM3 and plated out onto LB carbenicillin/kanamycin, and carbenicillin only control media as before. Library plates were then picked into 42 384-well microtiter plates (˜16,000 clones) containing 60 μl LB carbenicillin (Cb) broth per well. After overnight growth at 37° C. the cultures were stamped onto M9 assay plates containing no inducer, 0.2 ppm, and 2.0 ppm chlorsulfuron as test inducer. Following incubation at 30° C. for ˜48 hrs, putative hits responding to chlorsulfuron treatment as determined by increased blue colony color were re-arrayed into six 96-well microtiter plates and used to stamp a fresh set of M9 assay plates to confirm the above results. For a more detailed analysis of the relative induction by chlorsulfuron, digital photographs were taken of the plates after various time points of incubation at 30° C. and colony color intensity measured using the digital image analysis freeware program ImageJ (Rasband, US National Institutes of Health, Bethesda, Md., USA, rsb.info.nih.gov/ij/, 1997-2007). […] From this analysis sequence-activity relationships were derived. […] Briefly, C at position 100, and Q at positions 108 and 109 strongly correlated with activation, while R at position 138, L at position 170, and A or G at position 173 were highly preferred in clones with the lowest background activity. […] This information will aid in the design of further libraries to improve responsiveness to chlorsulfuron. […]
Library CsL3 construction and screening: Based on the IVM results the top performing residue substitutions were incorporated into library CsL3 (Table 14). The library was assembled with the oligonucleotides shown below in Table 19. The first and last primers in each set were used as rescue primers. To enable purification of hit proteins, a 6×His-tag between was added to the C-terminus of the ligand binding domain of each clone during the assembly and rescue process. The library was then inserted into pVER7334 SacI/AscI, transformed into E. coli assay strain Km3 and selected on LB+40 ug/ml Kanamycin and 50 ug/ml Carbenicillin. […] Colony color was then assessed at 24 and 96 hrs of incubation at 37° C. […] Also, while the C86M substitution was less frequent in the overall hit population it occurred in all top 26 clones.
Creating novel diversity through random mutagenesis.
Construction and screening of library CsL4.2.

Numbering of substitutions follows the chain as printed.

B1: L1-44: first round library L1 sulfonylurea repressor parental clone (protein)
chain: MGSRLDKSKVINSALELLNEVGIEGLTTRKLAQKLGVEQPTLYWHVKNKRALLDALAIEMLDRHATHFCPLEGESWQDFLRNNAKSYRCALLSHRDGAKVYLGTAVTEKQYETAENQLAFLCQQGFSLENALYAVKAVAGFTLGCVLWDQESQVAKEERETPTTASMPPLLRQAVELADHQGAEPAFLFGLELIICGLEKQLKCESGS
modifications: Sulfonylurea responsive repressor
notes: first round library L1 sulfonylurea repressor parental clone
With B1, in data set [1], the activity on chlorsulfuron result is listed as “moderate”, the activity on ethametsulfuron result was “moderate” and the metsulfuron activity entry is given as “moderate”.

B2: L1-22: first round library L1 sulfonylurea repressor parental clone (protein)
chain: MGSRLDKSKVINSALELLNEVGIEGLTTRKLAQKLGVEQPTLYWHVKNKRALLDALAIEMMDRHHTHFCPLEGESWQDFLRNTAKSYRCALLSHRDGAKVCLGTAITEKQYETKENNLAFLCQQGFSLENALYARQAVRVFTLGCVLFDQEMQVAKEERETPTTDSMPPLLRQASELLDHQGAEPAFLFGLELIICGLEKQLKSESGS
modifications: Sulfonylurea responsive repressor
notes: as for B1
As for B2, the sulfometuron activity result in data set [1] is reported as “strong”.

B3: L1-29: first round library L1 sulfonylurea repressor parental clone (protein)
chain: MGSRLDKSKVINSALELLNEVGIEGLTTRKLAQKLGVEQPTLYWHVKNKRALLDALAIEMMDRHQTHFCPLEGESWQDFLRNTAKSMRCALLSHRDGAKVWLGTRWTEKQYETPENMLAFLCQQGFSLENALYAWSAVCNFTLGCVLSDQERQVAKEERETPTTDSMPPLLRQAWELSDHQGAEPAFLFGLELIICGLEKQLKCESGS
modifications: Sulfonylurea responsive repressor
notes: as for B1
Turning to B3, the metsulfuron activity entry in data set [1] is listed as “moderate”.

B4: L6-1B03 (protein)
chain: MGSRLDKSKVINSALELLNEVGIEGLTTRKLAQKLGVEQPTLYWHVKNKRALLDALAIEMMDRHATHICPLEGESWQDFLRNNAKSMRCALLSHRDGAKVCLGTRWTEQQYEAAENMLAFLCQQGFSLENALYAVSAVRVFTLGCVLFDQESQVAKEERETPTTASMPPLLRQAWELKDHQGAEPAFLFGLELIICGLEKQLKCESGS
modifications: Sulfonylurea responsive repressor
For the molecule B4, in the data set on E. coli KM3, the “Control 84 hr (colony color intensity)” value was 6.6.

B5: L6-5H12 (protein)
chain: B4 chain with I68Y, Q109K, A113T, M117Q, V135M, S152L, L171V
modifications: Sulfonylurea responsive repressor
For the molecule B5, the “Control 84 hr (colony color intensity)” value with E. coli KM3 was determined as 5.7.

B6: L6-2D07 (protein)
chain: B4 chain with A65Q, I68F, N83T, A113T, V135M, L171V
modifications: Sulfonylurea responsive repressor
For B6, in the data set with E. coli KM3, the “Control 84 hr (colony color intensity)” value is 5.8.

B7: L6-3H02 (protein)
chain: B4 chain with I68Y, N83T, Q110H, A113S, L171V, D179V
modifications: Sulfonylurea responsive repressor
Turning to B7, in the data set with E. coli KM3, the “Control 84 hr (colony color intensity)” value was found to be 5.6.

B8: L6-5F05 (protein)
chain: B4 chain with M117Q, S152L
modifications: Sulfonylurea responsive repressor
With B8, in the data set with E. coli KM3, the “Control 84 hr (colony color intensity)” value is on record as 5.4.

B9: L6-5H06 (protein)
chain: B4 chain with A65Q, Q109K, A113T, S152L, L171V
modifications: Sulfonylurea responsive repressor
As for B9, in the data set with E. coli KM3, the “Control 84 hr (colony color intensity)” value is 5.1.

B10: L6-2C09 (protein)
chain: B4 chain with A65Q, I68Y, N83T, Q110L, A113T, M117Q, V135M, S152L
modifications: Sulfonylurea responsive repressor
In the case of B10, the “Control 84 hr (colony color intensity)” value in the data set with E. coli KM3 was 5.2.

B11: L6-4D10: library L6 clone, parent of the L8 hits (protein)
chain: B4 chain with A65Q, I68Y, Q109K, A113S
modifications: Sulfonylurea responsive repressor
notes: library L6 clone, parent of the L8 hits
For the molecule B11, the “Control 84 hr (colony color intensity)” value in the data set with E. coli KM3 is 5.0.

B12: L6-5G06 (protein)
chain: B4 chain with A65Q, I68Y, A113T, M117Q, S152L, A174G
modifications: Sulfonylurea responsive repressor
Regarding B12, the “Control 84 hr (colony color intensity)” value in the data set with E. coli KM3 was 7.0.

B13: L6-6F07 (protein)
chain: B4 chain with I68L, N83T, A113S, V135M
modifications: Sulfonylurea responsive repressor
For B13, the “Control 84 hr (colony color intensity)” value in the data set on E. coli KM3 came out at 5.1.

B14: L8-3F01: library L8 chlorsulfuron repressor hit, parent for saturation mutagenesis and CsL3 (protein)
chain: MARLDKSKVINSALELLNEVGIEGLTTRKLAQKLGVEQPTLYWHVKNKRALLDALAIEMMDRHQTHYLPLEGESWQDFLRNNAKSCRRALLSHRDGAKVCLGTRWTEQQYETAENMLAFLTQQGFSLENALYAVSAVRVFTLGAVLFDQESQVAKEERETPTTDSMPPLLRQAWELKDHQGAEPAFLFGLELIIAGLEKQLKRESGS
modifications: Sulfonylurea responsive repressor
notes: library L8 chlorsulfuron repressor hit, parent for saturation mutagenesis and CsL3
Turning to B14, in the data set on E. coli KM3 (CsL3 hits, 20 ppb Cs vs no inducer), the “F.IND = fold induction (IND/REP) (Colony Assay Results)” value was found to be 2.5.
